Measured values published in patent US20250376505A1.
Changes are numbered by the printed parent chain.

B1: B9P6 (antibody, V domains shown)
VH: EVQLVESGGGLVQPGGSLRLSCAASGFTFRSYTMDWVRQAPGKGLEWVSCISGSSNHKYYADSVRGRFTISRDNAKNSLFLQMNSLRAEDSAVYYCAREDDILTPLYGMDVWGPGTTVTVSS
VL: EIVLTQSPDTLSLSPGARATLSCRASQSVRSNYLAWYQQKPGQAPRLLIYGASSRATAIPDRFSGSGSGTDFTLTITRLEPEDFAVYYCHQYGSSPRTFGQGTKVEIK
B2: E11P6 (antibody, V domains shown)
VH: B1 VH with T33S, C50Y, H57Q, A61T
VL: B1 VL with F72L, G93A
B3: B2P8 (antibody, V domains shown)
VH: QVQLQESGPGLVKPSETLSLTCTVSGGSIRNSYWSWIRQPPGKGLEWIGYIYYTGTTNSNPSLKSRVTISVHMSQNQISLKLNSVTPADTAVYYCAQGGGSGDLHYWGQGTLVTVSS
VL: B1 VL with G93A
B4: G5P1 (antibody, V domains shown)
VH: B3 VH with E16G, Q75R
VL: NFMLTQPASVSGSPGQSITISCTGTRSDVGGYNYVSWYQQHPGKAPKLMIYDISSRPSGVSNRFSASKSGNTASLTISGLQAEDEADYYCISFATGYTWVFGGGTRLTVL
B5: E7P5 (antibody, V domains shown)
VH: B3 VH with P40S, T56S, V67L, I69V
VL: B4 VL with N1Q, F2S, M3A, M49I, R106S
B6: B8P7 (antibody, V domains shown)
VH: QVQLQESGPGLVRPSETLSLTCTVSGGSISPYYWNWIRQPPGKGLEWIGYIYYSGNTKYNPSLKSRVTISVDTSKNQFSLKLSSVSAADTAVYYCARDSCSGTCYLGDNWFDPWGQGTLVTVSS
VL: QSVLTQPPSVSGAPGQRVTISCTGSSSNIGANNDVHWYQHLPGTAPKLLIYGNNHRPSGVPDRFSGSKSGTSASLAITGLQAEDEADYYCQSYDSSLSTSKVFGGGTKLTVL
B7: C4P6 (antibody, V domains shown)
VH: B6 VH with D108G
VL: B6 VL
B8: B10P1 (antibody, V domains shown)
VH: EVQLSESGGGLVQPGGSLRLSCAASGFTFSSYAMSWVRQAPGKGLEWVSSLTGSGGSTYYRDSVKGRFTIFRDNSKKTLYMQMNSLRAEDTAVYYCAKEGAYSYDFWYFDLWGRGTLVTVSS
VL: EIVLTQSPGTLSLSPGERATLSCRASQTVSGNYLAWYQQKPGQSPSLLIYGASSRATGIPDRFTGSGSGTDFTLTISRLEPADFAVYYCQQYGRPLTFGGGTKVDIK
B9: C4P7 (antibody, V domains shown)
VH: B8 VH with S5L
VL: B8 VL with D105E
B10: G11P1 (antibody, V domains shown)
VH: B1 VH with T33S, C50Y, H57Q, A61T
VL: B1 VL with G93A
B11: D7P6 (antibody, V domains shown)
VH: EVQLLESGGGLVQPGGSLRLSCAASGFPFSSYAMSWVRQAPGKGLEWVSGITGSASGTYYADSVKGRFTISRDNSKNTLYLRMNSLRAEDTAVYYCAKEGAYSYDYWYFDLWGRGTLVTVSS
VL: EIVLTQSPGTLSLSPGERATLSCRASQSVSGSYLAWYQQKPGQTPRLLIYGASSRATGIPDRFSGSGSGTDFTLTINRLDPEDFGVYYCQQYGSLVTFGGGSKVEIK
B12: C11P7 (antibody, V domains shown)
VH: EVQLVESGGGLVQPGGSLKLSCAASGFSLSNSEVHWVRQASGKGLEWIGRVRSRANRHATGYTESVNGRFTVSRDDSKNTASLQLESLKIEDTAVYYCTGVRGVISRYFAMDVWGQGTTVTVSS
VL: QSALTQPASVSGSPGQSITISCTGTSSDVGAYNYVSWYRLRPGKDPHLIIYDVSHRPAGVSNRFSGSKSGNTASLTISGLQAEDEDEYYCCSYAHRGTPLFGGGTKLTVL

Biological target: VP1 pentamer of BKV genotype I (truncated VP1, residues 31 to 301, Dunlop sequence with Cys 104 replaced by Ser) (BK virus genotype I (Dunlop)) (UniProt P03088)
Test: ELISA, coated VP1 pentamer

Chain of VP1 pentamer of BKV genotype I (truncated VP1, residues 31 to 301, Dunlop sequence with Cys 104 replaced by Ser) (BK virus genotype I (Dunlop)) (P03088 31-301): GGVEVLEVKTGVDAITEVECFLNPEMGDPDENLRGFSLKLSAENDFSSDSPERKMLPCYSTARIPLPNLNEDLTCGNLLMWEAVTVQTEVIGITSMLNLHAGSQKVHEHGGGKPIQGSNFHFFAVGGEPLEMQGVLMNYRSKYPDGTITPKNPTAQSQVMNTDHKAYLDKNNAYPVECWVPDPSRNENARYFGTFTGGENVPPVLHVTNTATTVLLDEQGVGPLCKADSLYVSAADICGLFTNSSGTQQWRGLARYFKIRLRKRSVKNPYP

Binder	EC50
B1	0.12 µg/mL
B2	0.6 µg/mL
B3	10 µg/mL
B4	7 µg/mL
B5	0.15 µg/mL
B6	0.05 µg/mL
B7	1.5 µg/mL
B8	7 µg/mL
B9	5 µg/mL
B10	0.7 µg/mL
B11	6 µg/mL
B12	6 µg/mL
